Self-cleavage data for 114 variants are collected here from the RNAGym collection of RNA variant scans (doi:10.7554/elife.80360).

To fix the notation:
B1: Hammerhead Ribozyme (parent)
chain: ACCGGAUGUGCUUUCCGGUCUGAUGAGUCCGUGAGGACGAAACAG

The data set covers variants of B1. In words: self-cleavage, relative activity (ratio to wild type); higher = more cleavage; co-transcriptional.
Regarding ACCGGAUGUGCUUUCCGGUCUGAUGAGGCCGUGAGGACGAAAAAG, the self-cleavage turned out to be 0.323. Then ACCGGAUGUGCUGUCCGGUCUGAUGAGUCCGUGAGGACGAAACGG, with 1.7; and ACCGGAUUUGCUUUCCGGUCUGAUGAGUCCGUGAGGACUAAACAG, with 0.344; and ACCGGAUGUGCUUUCCGGUCUGAUGAGUCCUUGAGGACGAAACAC, with 0.819. On to ACCUGAUGUGCUUUCCGGUCUGAUGAGUCCGUGAGGACGAAACUG, for which the self-cleavage stood at 0.33. As for ACCGGAUCUGCUUUCCGGUCUGAUGAGUCGGUGAGGACGAAACAG, the figure is 0.886. As for ACCGGAUUUGCUGUCCGGUCUGAUGAGUCCGUGAGGACGAAACAG, the figure is 1.05.

With ACCGGAUGGGCUUUCCGGUCUGAUGAGUCCGUGAGGACGAAACCG, the self-cleavage came out at 0.39. In the case of ACCGGAUGUGCUUUCCUGUCUGAUGAGUCCGUGAGGACUAAACAG, the self-cleavage worked out at 0.357. On to UCCGGCUGUGCUUUCCGGUCUGAUGAGUCCGUGAGGACGAAACAG, for which the self-cleavage was found to be 0.363. As for ACCGGAUGUGCUUUCCGGUCUGAGGAGUCCGUCAGGACGAAACAG, the figure is 0.81; as for AACGGAUGUGCUUUCCGGUCUGAUGAGUCCGUGAGGACCAAACAG, 0.305; as for AUCGGAUGUGCUUUCCGGUCUGAUGAAUCCGUGAGGACGAAACAG, 1.06. Then ACCGGAUGUGCUUUCCGGUCUGAUGAGUCCGUGAGGACAAAACAC, with 0.421. ACCAGAUGUGCUUUCCGGUCUGAUAAGUCCGUGAGGACGAAACAG: the self-cleavage was 0.313. Then ACCGGAUGUUCUUUCCGGUAUGAUGAGUCCGUGAGGACGAAACAG, with 0.42; and ACCGGAUGUGCUUUCCGGUCUGAUGAGUGCGUGAGGACGAAACUG, with 0.398. As for AUCGGAUGUGCUUUCCGGUCUGAUGAGUCCGUGAGAACGAAACAG, the self-cleavage was 0.698. Then ACCGGAUGUGUUUUCCGGUCUGAUGAGUCCGUGAGGACGAAACGG, with 1.35. As for ACCGGAUGUGCUUUCCGGUCUGAUAAGUCCGUGAGGACGAAACAU, the figure is 0.45. As for AUCUGAUGUGCUUUCCGGUCUGAUGAGUCCGUGAGGACGAAACAG, the self-cleavage stood at 0.335. Then ACCCGAUGUGCUUUACGGUCUGAUGAGUCCGUGAGGACGAAACAG, with 0.524. Then CCCGGAUGUGCUUUCCGGUCUGUUGAGUCCGUGAGGACGAAACAG, with 0.362; and GCCGGAUGUGCUUUCCGGUCUGGUGAGUCCGUGAGGACGAAACAG, with 0.413; and ACCGGAUGUGCUCUCCGCUCUGAUGAGUCCGUGAGGACGAAACAG, with 0.842. Then ACCGGAUGUGCUUUCCGGUCUGAUGAAUCCAUGAGGACGAAACAG, with 0.61; and UCCGGAUGUGCUUUCCGGUCUGAUGAGCCCGUGAGGACGAAACAG, with 0.5.

In the case of ACCGGAUGUGCUUUCCGGUCCGAUGAGUCCGUGACGACGAAACAG, the self-cleavage was found to be 0.681.

For ACCGGAUGUGCUUUCCCGUCUGAUGAGUCCGUGAAGACGAAACAG, the self-cleavage amounted to 0.535. In the case of ACCGGAUGUGCUUUCCGGCCUGAUGAGUCCGUGAGGAUGAAACAG, the self-cleavage amounted to 0.36.

Take ACCGGAUGUGCUUUCGGGUCUGAUGAGUCCGUGAGGACGAAAAAG: the self-cleavage is 0.337. In the case of ACCGGAUGUGCUUUCGGGUCUAAUGAGUCCGUGAGGACGAAACAG, the self-cleavage was 0.336.

On to ACCGGAUGUGCUUUCCGGUCCGAUGAGUCCGUGAGGACUAAACAG, for which the self-cleavage came to 0.34.

In the case of ACCGGAUGUGCUUUCCGGUCUGAUGAGUCCGUGAGGGCAAAACAG, the self-cleavage stood at 0.362. As for ACCGGAUUUGCUUUCCGGUCUGAUGAGUCCGUGCGGACGAAACAG, the figure is 0.925; as for ACCGGAUGUGCUUUCCAGUCUGAUGAGUCCGUGAAGACGAAACAG, 0.623. In the case of ACCGGAUGUGCUAUCCGGUCUGAUGAGUCCGAGAGGACGAAACAG, the self-cleavage was 1.31. As for ACCGGAUGUGCUCUCCGGUCUGAUAAGUCCGUGAGGACGAAACAG, the self-cleavage turned out to be 0.395.

Regarding ACCGGAUGUGCUUUCCGCUCUGAUGAGUCCGUGAGGAAGAAACAG, the self-cleavage was 0.327. As for ACCGGAUGUGCUUUCCGGCCUGAUGAGUCCGUGCGGACGAAACAG, the figure is 0.411; as for ACCGGAUGUGCUCUCCGGUCUGAUGAGUCCGUAAGGACGAAACAG, 1.37.

In the case of ACCGGAUGUGCUCUCCGGUCUGAUGAGUCCGUGAGCACGAAACAG, the self-cleavage worked out at 0.336.

Regarding ACCGGAUGUGCAUUCCGGUCUGAUGAGUCCGGGAGGACGAAACAG, the self-cleavage worked out at 0.878. Then ACCGGAUGUGCUUUCCGGUCUGAGGAGUCCGUGAGGACGACACAG, with 0.322. As for ACCGGAUGUGCUUUCCGGUCUGAUGGGUCCGUGAGGUCGAAACAG, the figure is 0.352; as for ACCGGAUGUGCUUUCCGGUCUGAUGAGUCCGUGAGCACGCAACAG, 0.4; as for ACCGGAUGUGCUUUCCGGUCUGAUGAGUCAGUGAUGACGAAACAG, 1.17. As for ACCGGAUGUGCUUUCCGGUCUGCUGAGUCCGUGAGGACUAAACAG, the figure is 0.371; as for ACCGGAUGUGCGUUCCGGUCUGAUGGGUCCGUGAGGACGAAACAG, 0.346; as for ACCGGUUGUGCUUUCCGGACUGAUGAGUCCGUGAGGACGAAACAG, 0.337. In the case of ACCGGAUGUGCUUUGCGGUCUGAUGAGUCCGUGAGGGCGAAACAG, the self-cleavage turned out to be 0.535. Take AACGUAUGUGCUUUCCGGUCUGAUGAGUCCGUGAGGACGAAACAG: the self-cleavage was 0.319. As for ACCGGAUGUGCUUUCCGGUCGGAUGAGUCCGUGAUGACGAAACAG, the figure is 0.413; as for ACCGGAUGUGCGUUCCGGUCUGAUGAGUACGUGAGGACGAAACAG, 0.643; as for ACCGGAUGUGCUUUCCGGUCUGAUGAGUCCGAGAGGACAAAACAG, 0.367. In the case of ACCGGAUGUGCUUUCCGGUCUGAUGAGUCCGUUAGGACGAAAGAG, the self-cleavage was 0.449. UCCGGAUGUGCUUUCCGGUCUGAUGAGUCCGUGAGCACGAAACAG: the self-cleavage amounted to 0.328.

ACCAGAUGUGCUUUCCGGUCUGAUGAGUCCGUGAGGAUGAAACAG: the self-cleavage was 0.453. Take AGCGGAUGUGUUUUCCGGUCUGAUGAGUCCGUGAGGACGAAACAG: the self-cleavage came out at 0.32. Then ACCGGAUGUGUUUUCCGGUUUGAUGAGUCCGUGAGGACGAAACAG, with 0.544.

ACCGGCUGUGCUUUCCGGUCUGAUGAGUUCGUGAGGACGAAACAG: the self-cleavage was 0.695.

As for ACCGGAUGUGCUUUCUGGUCUGAUGAGUCCGUGAGAACGAAACAG, the self-cleavage came to 0.636.

In the case of ACCGGAUGUGCUAUCCGGUCUGAUGAGUCCGUGAGGACGAUACAG, the self-cleavage came to 0.355. For ACCGUAUAUGCUUUCCGGUCUGAUGAGUCCGUGAGGACGAAACAG, the self-cleavage amounted to 0.748. As for ACCGGAUGUGCUUUCCGGUCUAAUGAGUCCGUGAGGUCGAAACAG, the figure is 0.288; as for ACGGGAUGUGCUUUCCGGUCUGAUGAGACCGUGAGGACGAAACAG, 0.376. Regarding ACCGGACGUGCUUUACGGUCUGAUGAGUCCGUGAGGACGAAACAG, the self-cleavage is 0.737. As to UCCUGAUGUGCUUUCCGGUCUGAUGAGUCCGUGAGGACGAAACAG, the self-cleavage was 0.309. As to ACCGGAUGUGCUUUGCGGUCUGAUGACUCCGUGAGGACGAAACAG, the self-cleavage stood at 0.427.

Regarding ACCGGAUGUGCUUUCCGGUCUGAUGAGUCCGUGAGUACGAAACUG, the self-cleavage turned out to be 0.379. As for ACCGGAUGUGCUUUCCGGUCUGAUGAGUCCGUAAGGACGAAACAG, the self-cleavage was found to be 1.03. Consider ACCGGAUGUGCUUUCCGGUCGGAUGAGUCCGUGAGGAGGAAACAG, for which the self-cleavage amounted to 0.303.

Turning to ACGGGAUGUGCUUUCCGGUCUGAUGAGUCCGUGAGGACGAAACAC, the self-cleavage was determined as 0.35.

For ACCGGAUGUGCGUUCCAGUCUGAUGAGUCCGUGAGGACGAAACAG, the self-cleavage was 0.738.

As for ACCGGAUGUGCUUUCCGGUGUGAUCAGUCCGUGAGGACGAAACAG, the self-cleavage stood at 0.503. Then ACCGGAUGUGCUUUCCGGUGUGAUAAGUCCGUGAGGACGAAACAG, with 0.314; and ACCGGAUGUGUUUUCCGGUCUGAUGAGUCCGUGAAGACGAAACAG, with 0.64. As for ACCGGAUGUGCUUUCCGGUGUGAUGAGUGCGUGAGGACGAAACAG, the self-cleavage was 0.35.

As to ACCGGAUGUGCUGUCCGGUCUGAUGACUCCGUGAGGACGAAACAG, the self-cleavage was found to be 0.546. As for ACCGGAUGAGCUUUCCGGUCUGAUGAGUCCGUGAGGACCAAACAG, the figure is 0.288; as for ACCGGAUGUGAUUUCCGAUCUGAUGAGUCCGUGAGGACGAAACAG, 0.839; as for ACCGGAUGUGCUUUCCGGUCUGAUGAGUCCGAGAGGAGGAAACAG, 0.733. As to GCCGGAUGUGCUCUCCGGUCUGAUGAGUCCGUGAGGACGAAACAG, the self-cleavage was 1.87. As for ACCGGAUGUGCUUUCCGGUCUGAUGAGUCCUUGAGGACGUAACAG, the figure is 0.399; as for ACCGGAUGUGCUUUCCGGUCUGAUGAGUCCGUUAGGACGAGACAG, 0.354.

With ACCAGAUGUGCUUUCGGGUCUGAUGAGUCCGUGAGGACGAAACAG, the self-cleavage came to 0.977. ACCGGAUUUGCUUUCCGGUCUGAUGAGUCCUUGAGGACGAAACAG: the self-cleavage was found to be 1.08. As for ACCGGGUGUGCUUUCCGGUCUGAUGAGACCGUGAGGACGAAACAG, the figure is 0.468; as for ACCGGAUGUGCUUUCCUGUCUGAUGAGUCCGAGAGGACGAAACAG, 0.764; as for ACCGGAUGUGCUUUCCGGUCUGAUGGGUCCGUGAGCACGAAACAG, 0.307. Regarding ACCGGAUGUGCUUUCCGGUAUGAUGACUCCGUGAGGACGAAACAG, the self-cleavage was 0.369.

Regarding ACCGGAUAUGCUUUCCGGUCUGAUGAGUCCGUGAGGAAGAAACAG, the self-cleavage was 0.56. As for ACCGGCUGUGCUUUCCGGUCUGAUGAGUCCGUGAGGACGAAACAG, the figure is 0.722. As for ACCGGAUGUGAUUUCCGGUCUGAUGAGUCCGUGAGUACGAAACAG, the figure is 0.762. Take ACCGGAUGUGCUUUCCGUUCUGAUGAGACCGUGAGGACGAAACAG: the self-cleavage amounted to 0.461. Then ACCGGAUGUGCUUUCCGGUCUGUUGAGUCCGUGUGGACGAAACAG, with 0.28; and ACCGGAUGUGCUUUCCGGUCUGUUGAGUGCGUGAGGACGAAACAG, with 0.345. ACGGGAUGUGCUUUCCGGUCUGAUGAGUCCGUGAGGACGAAAGAG: the self-cleavage was determined as 0.273. In the case of ACCGAAUGUGCUUUCCGGUCUGAUGAGUCCGUGAGGACGAAAUAG, the self-cleavage was found to be 0.467.

As for ACCGGAUGUGCUUUCCGGUCUGAUGAGUCCGUGAGGACGCCACAG, the self-cleavage is 0.385. Consider ACCCGAUGUGCUUUCCGGUCUGAUGAGUCCGUGAGGACAAAACAG, for which the self-cleavage stood at 0.326. Take ACCGGAUCUGCUUUCCGGUCUGAUGAGUCCGUGAGGACGAAACCG: the self-cleavage was found to be 0.608. Then ACCGGAUGUGUUUUCCGAUCUGAUGAGUCCGUGAGGACGAAACAG, with 0.428; and ACCAGAUGUGCUUUCCGGUCUGAGGAGUCCGUGAGGACGAAACAG, with 0.546; and ACCGGAUGUUCUUUCCGGUCUGAUGAGUCCGUGAGGACGAAACGG, with 1.57. In the case of ACCGGGUGUGCUUUCCGGUCUGAUGAGUCCGUGAUGACGAAACAG, the self-cleavage was 0.465. Regarding ACCGGAUGUGCUUUCCGGUCUGAUAAGUCCGUGCGGACGAAACAG, the self-cleavage stood at 0.278. Then ACCGGAUGUGCUUUGCGGUCUGAUGAGUCCGCGAGGACGAAACAG, with 0.804; and ACCGGAUGUGCUUUCCGGUCUGAUGCGUCCGUGAGGACGAACCAG, with 0.305; and ACCUGAUGUGCUAUCCGGUCUGAUGAGUCCGUGAGGACGAAACAG, with 1.14. As for ACCGGAUGUGCUUUCCGGUCUGAUGAGUCCUUGAGGCCGAAACAG, the self-cleavage is 1.25. Then ACCGGAUGUGGUUUCCGGUCUUAUGAGUCCGUGAGGACGAAACAG, with 0.378; and ACCGGAUGUUCUUUCCGGUCUGAUGAGUCCGUGAGGACGACACAG, with 0.422. Then ACCGGACGUGCUUUCCGGUCUGUUGAGUCCGUGAGGACGAAACAG, with 0.339.
